Source: patent US20150344570A1 (published 2015)

B1: GpH7-A5/GpH7-B3 variant S298_06M/GpL16-k0 (antibody, human IgG1, kappa)
heavy 1: not shown
heavy 2: not shown
light: DIVMTQSPLSLPVTPGEPASISCQASESLVHSNRNTYLHWYLQKPGQSPQLLIYKVSNRFSGVPDRFSGSGSGTDFTLKISRVEAEDVGVYYCSQNTHVPPTFGQGTKVEIERTVAAPSVFIFPPSDEQLKSGTASVVCLLNNFYPREAKVQWKVDNALQSGNSQESVTEQDSKDSTYSLSSTLTLSKADYEKHKVYACEVTHQGLSSPVTKSFNRGEC
notes: Heterodimerized antibody, alteration in one H chain only; also called He Ab S298M
B2: GpH7-A5/GpH7-B3 variant S298_16H/GpL16-k0 (antibody, human IgG1, kappa)
heavy 1: not shown
heavy 2: not shown
light: B1 light
notes: heterodimerized IgG1, mutation in one H chain; also called He Ab
B3: GpH7-A5/GpH7-B3 variant S239_07I/GpL16-k0 (antibody, human IgG1, kappa)
heavy 1: not shown
heavy 2: not shown
light: B1 light
notes: Heterodimerized antibody, alteration in one H chain only; also called He Ab S239I
B4: GpH7-A5/GpH7-B3 variant S337_02A/GpL16-k0 (antibody, human IgG1, kappa)
heavy 1: not shown
heavy 2: not shown
light: B1 light
notes: as for B2
B5: GpH7-A5/GpH7-B3 variant S298_19Q/GpL16-k0 (antibody, human IgG1, kappa)
heavy 1: not shown
heavy 2: not shown
light: B1 light
notes: as for B2
B6: GpH7-A5/GpH7-B3 variant S267_01G/GpL16-k0 (antibody, human IgG1, kappa)
heavy 1: not shown
heavy 2: not shown
light: B1 light
notes: Heterodimerized antibody, alteration in one H chain only; also called He Ab S267G
B7: GpH7-A5/GpH7-B3 variant K326_08L/GpL16-k0 (antibody, human IgG1, kappa)
heavy 1: not shown
heavy 2: not shown
light: B1 light
notes: Heterodimerized antibody, alteration in one H chain only; also called He Ab K326L
B8: GpH7-A5/GpH7-B3 variant S298_18N/GpL16-k0 (antibody, human IgG1, kappa)
heavy 1: not shown
heavy 2: not shown
light: B1 light
notes: as for B2
B9: GpH7-A5/GpH7-B3 variant P238_09D/GpL16-k0 (antibody, human IgG1, kappa)
heavy 1: not shown
heavy 2: not shown
light: B1 light
notes: Heterodimerized antibody, alteration in one H chain only; also called He Ab P238D
B10: GpH7-A5/GpH7-B3 variant S267_19Q/GpL16-k0 (antibody, human IgG1, kappa)
heavy 1: not shown
heavy 2: not shown
light: B1 light
notes: Heterodimerized antibody, alteration in one H chain only; also called He Ab S267Q
B11: GpH7-A5/GpH7-B3 variant K326_05P/GpL16-k0 (antibody, human IgG1, kappa)
heavy 1: not shown
heavy 2: not shown
light: B1 light
notes: Heterodimerized antibody, alteration in one H chain only; also called He Ab K326P
B12: GpH7-A5/GpH7-B3 variant H268_05P/GpL16-k0 (antibody, human IgG1, kappa)
heavy 1: not shown
heavy 2: not shown
light: B1 light
notes: Heterodimerized antibody, alteration in one H chain only; also called He Ab H268P
B13: GpH7-A5/GpH7-B3 variant S337_01G/GpL16-k0 (antibody, human IgG1, kappa)
heavy 1: not shown
heavy 2: not shown
light: B1 light
notes: as for B2
B14: GpH7-A5/GpH7-B3 variant P271_10E/GpL16-k0 (antibody, human IgG1, kappa)
heavy 1: not shown
heavy 2: not shown
light: B1 light
notes: Heterodimerized antibody, alteration in one H chain only; also called He Ab P271E
B15: GpH7-A5/GpH7-B3 variant S239_03V/GpL16-k0 (antibody, human IgG1, kappa)
heavy 1: not shown
heavy 2: not shown
light: B1 light
notes: Heterodimerized antibody, alteration in one H chain only; also called He Ab S239V
B16: GpH7-A5/GpH7-B3 variant S267_08L/GpL16-k0 (antibody, human IgG1, kappa)
heavy 1: not shown
heavy 2: not shown
light: B1 light
notes: Heterodimerized antibody, alteration in one H chain only; also called He Ab S267L
B17: GpH7-A5/GpH7-B3 variant P271_08L/GpL16-k0 (antibody, human IgG1, kappa)
heavy 1: not shown
heavy 2: not shown
light: B1 light
notes: Heterodimerized antibody, alteration in one H chain only; also called He Ab P271L
B18: GpH7-A5/GpH7-B3 variant H268_20W/GpL16-k0 (antibody, human IgG1, kappa)
heavy 1: not shown
heavy 2: not shown
light: B1 light
notes: Heterodimerized antibody, alteration in one H chain only; also called He Ab H268W
B19: GpH7-A5/GpH7-B3 variant S324_03V/GpL16-k0 (antibody, human IgG1, kappa)
heavy 1: not shown
heavy 2: not shown
light: B1 light
notes: as for B2
B20: GpH7-A5/GpH7-B3 variant S298_08L/GpL16-k0 (antibody, human IgG1, kappa)
heavy 1: not shown
heavy 2: not shown
light: B1 light
notes: Heterodimerized antibody, alteration in one H chain only; also called He Ab S298L
B21: GpH7-A5/GpH7-B3 variant H268_03V/GpL16-k0 (antibody, human IgG1, kappa)
heavy 1: not shown
heavy 2: not shown
light: B1 light
notes: Heterodimerized antibody, alteration in one H chain only; also called He Ab H268V
B22: GpH7-A5/GpH7-B3 variant P238_10E/GpL16-k0 (antibody, human IgG1, kappa)
heavy 1: not shown
heavy 2: not shown
light: B1 light
notes: Heterodimerized antibody, alteration in one H chain only; also called He Ab P238E
B23: GpH7-A5/GpH7-B3 variant S239_05P/GpL16-k0 (antibody, human IgG1, kappa)
heavy 1: not shown
heavy 2: not shown
light: B1 light
notes: Heterodimerized antibody, alteration in one H chain only; also called He Ab S239P
B24: GpH7-A5/GpH7-B3 variant S267_06M/GpL16-k0 (antibody, human IgG1, kappa)
heavy 1: not shown
heavy 2: not shown
light: B1 light
notes: Heterodimerized antibody, alteration in one H chain only; also called He Ab S267M

Key:
[1] = biological target: T1, FcγRIIb (human, UniProt P31994 43-217); test: SPR (Biacore), antibody captured, FcγR analyte; binding relative to GpH7-A5/GpH7-B3/GpL16-k0 = 100
T1 construct: extracellular domain; also called FcgRIIb; 2b
T1 sequence (looked up): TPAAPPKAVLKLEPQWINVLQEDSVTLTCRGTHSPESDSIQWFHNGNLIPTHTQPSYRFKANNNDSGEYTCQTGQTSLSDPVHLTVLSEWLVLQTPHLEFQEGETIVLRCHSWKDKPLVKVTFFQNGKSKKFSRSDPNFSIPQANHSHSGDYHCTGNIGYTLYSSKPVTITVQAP

[2] = biological target: T2, FcγRIIa H (human, UniProt P12318 34-217); test: as above
T2 construct: extracellular domain; also called FcgRIIa H; FcγRIIa type H
T2 sequence (looked up): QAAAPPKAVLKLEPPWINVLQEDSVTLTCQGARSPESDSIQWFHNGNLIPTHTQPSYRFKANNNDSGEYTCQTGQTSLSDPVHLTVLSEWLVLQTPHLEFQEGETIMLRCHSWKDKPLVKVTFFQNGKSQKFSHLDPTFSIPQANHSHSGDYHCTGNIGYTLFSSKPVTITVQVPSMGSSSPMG

[3] = biological target: T3, FcγRIa (human, UniProt P12314 16-292); test: SPR (Biacore), captured antibody, FcγRIa analyte; relative to HeCon Ab GpH7-A5/GpH7-B3/GpL16-k0 = 100
T3 construct: extracellular domain; soluble extracellular domain with C-terminal His tag, expressed in FreeStyle293 cells; also called FcgRI; FcgRIa
T3 sequence (P12314 16-292): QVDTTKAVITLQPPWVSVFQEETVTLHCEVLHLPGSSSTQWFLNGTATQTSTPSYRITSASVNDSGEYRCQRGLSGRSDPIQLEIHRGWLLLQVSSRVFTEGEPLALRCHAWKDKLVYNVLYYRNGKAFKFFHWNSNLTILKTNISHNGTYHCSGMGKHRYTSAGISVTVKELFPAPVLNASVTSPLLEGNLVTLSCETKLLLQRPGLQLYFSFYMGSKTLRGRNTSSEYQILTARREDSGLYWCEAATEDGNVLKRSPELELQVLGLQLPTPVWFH

| He/Con_2b [1] | He/Con_2aH [2] | He/Con_1a [3] | Binder |
| --- | --- | --- | --- |
| 102 % of control | 98.1 % of control |  | B1 |
|  |  | 109 % of control | B2 |
| 107 % of control | 91.5 % of control |  | B3 |
|  |  | 106 % of control | B4 |
|  |  | 109 % of control | B5 |
| 105 % of control | 71.3 % of control |  | B6 |
| 177 % of control | 92.7 % of control |  | B7 |
|  |  | 108 % of control | B8 |
| 221 % of control | 87.5 % of control |  | B9 |
| 218 % of control | 61.3 % of control |  | B10 |
| 126 % of control | 98.8 % of control |  | B11 |
| 116 % of control | 81.8 % of control |  | B12 |
|  |  | 107 % of control | B13 |
| 109 % of control | 63.1 % of control |  | B14 |
| 108 % of control | 91 % of control |  | B15 |
| 109 % of control | 29 % of control |  | B16 |
| 103 % of control | 86.7 % of control |  | B17 |
| 111 % of control | 95.8 % of control |  | B18 |
|  |  | 104 % of control | B19 |
| 108 % of control | 85 % of control |  | B20 |
| 114 % of control | 99.2 % of control |  | B21 |
| 232 % of control | 77.1 % of control |  | B22 |
| 102 % of control | 33.3 % of control |  | B23 |
| 210 % of control | 34.3 % of control |  | B24 |
